Tests used:
[1] = target: Fcε receptors expressed on the surface of U937 monocytic cells (human (endogenous in U937)); assay: flow cytometry on cells
[2] = target: recombinant IgE receptor FcεRI alpha (sFcεRIα) (UniProt P12319); assay: SPR
Sequence of UniProt P12319 (P12319 26-205): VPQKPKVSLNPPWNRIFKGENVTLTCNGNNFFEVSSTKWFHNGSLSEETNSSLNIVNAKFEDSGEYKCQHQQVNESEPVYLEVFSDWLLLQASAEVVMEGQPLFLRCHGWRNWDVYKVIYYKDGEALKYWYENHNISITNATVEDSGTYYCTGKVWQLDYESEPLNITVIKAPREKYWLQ

percent of cells bound [1] | koff [2] | kon [2] | Substance
60.6% |  |  | chimaeric MOv18 IgE antibody against the ovarian cancer antigen FBP
 | 2.6e-05 s⁻¹ | 230000 M⁻¹ s⁻¹ | chimaeric antibody NIP IgE

From PMC3017872
